In assay [1] the target is T1, activin A (UniProt P08476 311-426).
T1 construct: also called ActA
T1 sequence (looked up): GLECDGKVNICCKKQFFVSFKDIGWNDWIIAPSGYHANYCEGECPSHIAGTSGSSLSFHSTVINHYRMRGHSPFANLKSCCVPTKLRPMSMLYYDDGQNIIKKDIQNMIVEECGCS
As to the kind of experiment: SPR (Biacore); ligand coupled, receptor flowed over (as reported in WO2006/012627). From the text: (§1) Other variants have been generated and tested, as reported in WO2006/012627 (incorporated herein by reference in its entirety). See, e.g., pp. 59-60, using ligands coupled to the device and flowing receptor over the coupled ligands. […] Table 11 showing data with respect to these variants is reproduced below: […]
(In SPR one partner is held on a chip, and binding of the other changes the refractive index at the surface.)

Assay [2] has as its target T1, activin A. The assay can be described thus: SPR (Biacore); receptor-Fc captured by anti-hFc antibody, ligand injected. The protocol:
(§2) Binding of certain ActRIIB-Fc proteins and ActRIIB variant Fc fusion polypeptides to ligands was tested in a Biacore™ assay.
(§3) The ActRIIB-Fc variants or wild-type protein were captured onto the system using an anti-hFc antibody. Ligands were injected and flowed over the captured receptor proteins.

Assay [3] has as its target T2, GDF11 (UniProt O95390 299-407).
T2 construct: also called BMP11
T2 sequence (looked up): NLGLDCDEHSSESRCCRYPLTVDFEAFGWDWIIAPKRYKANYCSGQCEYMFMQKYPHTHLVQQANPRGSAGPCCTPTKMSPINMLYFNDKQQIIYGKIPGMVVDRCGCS
The description is as above. The procedure: as §2, §3

The target of another assay is T3, GDF8 (UniProt O14793 267-375).
T3 construct: also called myostatin
T3 sequence (looked up): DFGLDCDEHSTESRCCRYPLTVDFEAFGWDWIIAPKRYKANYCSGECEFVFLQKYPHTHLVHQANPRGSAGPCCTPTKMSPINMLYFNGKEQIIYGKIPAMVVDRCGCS
The description is as above. The protocol: as §2, §3

Assay [4] concerns the target T2, GDF11. The assay can be described thus: SPR (Biacore); ligand coupled, receptor flowed over (as reported in WO2006/012627).
Excerpt: as §1

B1: Soluble ActRIIB-Fc +15tail (Fc fusion, UniProt Q13705 19-134, looked up)
chain: SGRGEAETRECIYYNANWELERTNQSGLERCEGEQDKRLHCYASWANSSGTIELVKKGCWLDDFNCYDRQECVATEENPQVYFCCCEGNFCNERFTHLPEAGGPEVTYEPPPTAPT
notes: not shown: linker and Fc
What is called Kd is the concentration at which binding is half-saturated. Consider B1, for which, in the assay with activin A [1], the Kd is roughly 26 nM.

B2: ActRIIB(A24N 20-134)-hFc (Fc fusion)
chain: GRGENETRECIYYNANWELERTNQSGLERCEGEQDKRLHCYASWRNSSGTIELVKKGCWLDDFNCYDRQECVATEENPQVYFCCCEGNFCNERFTHLPEAGGPEVTYEPPPTAPTGGGTHTCPPCPAPELLGGPSVFLFPPKPKDTLMISRTPEVTCVVVDVSHEDPEVKFNWYVDGVEVHNAKTKPREEQYNSTYRVVSVLTVLHQDWLNGKEYKCKVSNKALPVPIEKTISKAKGQPREPQVYTLPPSREEMTKNQVSLTCLVKGFYPSDIAVEWESNGQPENNYKTTPPVLDSDGSFFLYSKLTVDKSRWQQGNVFSCSVMHEALHNHYTQKSLSLSPGK
By koff is commonly meant the first-order rate constant of dissociation. Read a high koff as a short-lived complex. In general, kon refers to the second-order rate constant of association. In the assay with activin A [2], B2 gave a Kd of 0.104 nM, a koff of 0.000346 s⁻¹ and a kon of 3.34e+06 M⁻¹ s⁻¹. In the assay with GDF11 [3], the Kd came out at 0.0519 nM and the koff is 6.35e-05 s⁻¹.

B3: ActRIIB(K74A 20-134)-hFc (Fc fusion)
chain: GRGEAETRECIYYNANWELERTNQSGLERCEGEQDKRLHCYASWRNSSGTIELVAKGCWLDDFNCYDRQECVATEENPQVYFCCCEGNFCNERFTHLPEAGGPEVTYEPPPTAPTGGGTHTCPPCPAPELLGGPSVFLFPPKPKDTLMISRTPEVTCVVVDVSHEDPEVKFNWYVDGVEVHNAKTKPREEQYNSTYRVVSVLTVLHQDWLNGKEYKCKVSNKALPVPIEKTISKAKGQPREPQVYTLPPSREEMTKNQVSLTCLVKGFYPSDIAVEWESNGQPENNYKTTPPVLDSDGSFFLYSKLTVDKSRWQQGNVFSCSVMHEALHNHYTQKSLSLSPGK
Take B3: in the assay with GDF8, the Kd amounted to 0.0718 nM and the koff came to 2.03e-05 s⁻¹.

B4: ActRIIB(P129S, P130R 20-134)-hFc (Fc fusion)
chain: GRGEAETRECIYYNANWELERTNQSGLERCEGEQDKRLHCYASWRNSSGTIELVKKGCWLDDFNCYDRQECVATEENPQVYFCCCEGNFCNERFTHLPEAGGPEVTYEPSRTAPTGGGTHTCPPCPAPELLGGPSVFLFPPKPKDTLMISRTPEVTCVVVDVSHEDPEVKFNWYVDGVEVHNAKTKPREEQYNSTYRVVSVLTVLHQDWLNGKEYKCKVSNKALPVPIEKTISKAKGQPREPQVYTLPPSREEMTKNQVSLTCLVKGFYPSDIAVEWESNGQPENNYKTTPPVLDSDGSFFLYSKLTVDKSRWQQGNVFSCSVMHEALHNHYTQKSLSLSPGK
In the assay with activin A [2], B4 gave a dissociation constant Kd of 0.0831 nM, a koff of 0.000417 s⁻¹ and a kon of 5.02e+06 M⁻¹ s⁻¹. In the assay with GDF8, this molecule came in with a Kd of 1.67 nM and a koff of 0.00018 s⁻¹.

B5: ActRIIB(L79D 20-134)-hFc (Fc fusion)
chain: GRGEAETRECIYYNANWELERTNQSGLERCEGEQDKRLHCYASWRNSSGTIELVKKGCWDDDFNCYDRQECVATEENPQVYFCCCEGNFCNERFTHLPEAGGPEVTYEPPPTAPTGGGTHTCPPCPAPELLGGPSVFLFPPKPKDTLMISRTPEVTCVVVDVSHEDPEVKFNWYVDGVEVHNAKTKPREEQYNSTYRVVSVLTVLHQDWLNGKEYKCKVSNKALPVPIEKTISKAKGQPREPQVYTLPPSREEMTKNQVSLTCLVKGFYPSDIAVEWESNGQPENNYKTTPPVLDSDGSFFLYSKLTVDKSRWQQGNVFSCSVMHEALHNHYTQKSLSLSPGK
On to B5, for which, in the assay with GDF8, the Kd was 2.15 nM and the koff stood at 0.00083 s⁻¹. In the assay with GDF11 [3], this molecule registered a Kd of 0.655 nM and a koff of 0.000439 s⁻¹.

B6: Soluble ActRIIB-Fc WT (64A) (Fc fusion, UniProt Q13705 19-119, looked up, not shown: a dimerising Fc or GST)
chain: SGRGEAETRECIYYNANWELERTNQSGLERCEGEQDKRLHCYASWANSSGTIELVKKGCWLDDFNCYDRQECVATEENPQVYFCCCEGNFCNERFTHLPEA
notes: Whole entry named
With B6, the Kd came out at 180 nM with activin A [1] and 260 nM in the assay with GDF11 [4].

B7: Soluble ActRIIB-Fc R56A (Table 11) (Fc fusion, UniProt Q13705 19-119, looked up, not shown: a dimerising Fc or GST)
chain: SGRGEAETRECIYYNANWELERTNQSGLERCEGEQDKALHCYASWANSSGTIELVKKGCWLDDFNCYDRQECVATEENPQVYFCCCEGNFCNERFTHLPEA
Turning to B7, the binding result with activin A [1] and in the assay with GDF11 [4] was “no binding” in each case.

B8: Soluble ActRIIB-Fc D80K (Table 11) (Fc fusion, UniProt Q13705 19-119, looked up, not shown: a dimerising Fc or GST)
chain: SGRGEAETRECIYYNANWELERTNQSGLERCEGEQDKRLHCYASWANSSGTIELVKKGCWLKDFNCYDRQECVATEENPQVYFCCCEGNFCNERFTHLPEA
For B8, the binding result with activin A [1] and with GDF11 [4] was “no binding” throughout.

B9: Soluble ActRIIB-Fc D80A (Table 11) (Fc fusion, UniProt Q13705 19-119, looked up, not shown: a dimerising Fc or GST)
chain: SGRGEAETRECIYYNANWELERTNQSGLERCEGEQDKRLHCYASWANSSGTIELVKKGCWLADFNCYDRQECVATEENPQVYFCCCEGNFCNERFTHLPEA
For the molecule B9, the binding result with activin A [1] and in the assay with GDF11 [4] was “no binding” in each case.

B10: Soluble ActRIIB-Fc K55A (Table 11) (Fc fusion, UniProt Q13705 19-119, looked up, not shown: a dimerising Fc or GST)
chain: SGRGEAETRECIYYNANWELERTNQSGLERCEGEQDARLHCYASWANSSGTIELVKKGCWLDDFNCYDRQECVATEENPQVYFCCCEGNFCNERFTHLPEA
For the molecule B10, in the assay with GDF11 [4], the binding result is “no binding”.

B11: Soluble ActRIIB-Fc E37A (Table 11) (Fc fusion, UniProt Q13705 19-119, looked up, not shown: a dimerising Fc or GST)
chain: SGRGEAETRECIYYNANWALERTNQSGLERCEGEQDKRLHCYASWANSSGTIELVKKGCWLDDFNCYDRQECVATEENPQVYFCCCEGNFCNERFTHLPEA
For the molecule B11, the binding result with activin A [1] and with GDF11 [4] was “no binding” each time.

B12: Soluble ActRIIB-Fc D80G (Table 11) (Fc fusion, UniProt Q13705 19-119, looked up, not shown: a dimerising Fc or GST)
chain: SGRGEAETRECIYYNANWELERTNQSGLERCEGEQDKRLHCYASWANSSGTIELVKKGCWLGDFNCYDRQECVATEENPQVYFCCCEGNFCNERFTHLPEA
Consider B12, for which the binding result with activin A [1] and with GDF11 [4] was “no binding” throughout.

B13: Soluble ActRIIB-Fc K74A (Table 11) (Fc fusion, UniProt Q13705 19-119, looked up, not shown: a dimerising Fc or GST)
chain: SGRGEAETRECIYYNANWELERTNQSGLERCEGEQDKRLHCYASWANSSGTIELVAKGCWLDDFNCYDRQECVATEENPQVYFCCCEGNFCNERFTHLPEA
B13: the Kd in the assay with activin A [1] came out at 4.35 nM; with GDF11 [4], 5.3 nM.

B14: Soluble ActRIIB-Fc D80F (Table 11) (Fc fusion, UniProt Q13705 19-119, looked up, not shown: a dimerising Fc or GST)
chain: SGRGEAETRECIYYNANWELERTNQSGLERCEGEQDKRLHCYASWANSSGTIELVKKGCWLFDFNCYDRQECVATEENPQVYFCCCEGNFCNERFTHLPEA
For B14, the binding result with activin A [1] and with GDF11 [4] was “no binding” in each case.

B15: Soluble ActRIIB-Fc W78A (Table 11) (Fc fusion, UniProt Q13705 19-119, looked up, not shown: a dimerising Fc or GST)
chain: SGRGEAETRECIYYNANWELERTNQSGLERCEGEQDKRLHCYASWANSSGTIELVKKGCALDDFNCYDRQECVATEENPQVYFCCCEGNFCNERFTHLPEA
For B15, the binding result in the assay with activin A [1] and with GDF11 [4] was “no binding” in each case.

B16: Soluble ActRIIB-Fc D80N (Table 11) (Fc fusion, UniProt Q13705 19-119, looked up, not shown: a dimerising Fc or GST)
chain: SGRGEAETRECIYYNANWELERTNQSGLERCEGEQDKRLHCYASWANSSGTIELVKKGCWLNDFNCYDRQECVATEENPQVYFCCCEGNFCNERFTHLPEA
Turning to B16, the binding result with activin A [1] and with GDF11 [4] was “no binding” each time.

B17: Soluble ActRIIB-Fc WT (64R) (Fc fusion, UniProt Q13705 19-119, looked up, not shown: a dimerising Fc or GST)
chain: SGRGEAETRECIYYNANWELERTNQSGLERCEGEQDKRLHCYASWRNSSGTIELVKKGCWLDDFNCYDRQECVATEENPQVYFCCCEGNFCNERFTHLPEA
notes: Whole entry named
As for B17, in the assay with GDF11 [4], the Kd was determined as 86 nM.

B18: Soluble ActRIIB-Fc D80R (Table 11) (Fc fusion, UniProt Q13705 19-119, looked up, not shown: a dimerising Fc or GST)
chain: SGRGEAETRECIYYNANWELERTNQSGLERCEGEQDKRLHCYASWANSSGTIELVKKGCWLRDFNCYDRQECVATEENPQVYFCCCEGNFCNERFTHLPEA
As for B18, the binding result in the assay with activin A [1] and with GDF11 [4] was “no binding” in each case.

B19: Soluble ActRIIB-Fc D80M (Table 11) (Fc fusion, UniProt Q13705 19-119, looked up, not shown: a dimerising Fc or GST)
chain: SGRGEAETRECIYYNANWELERTNQSGLERCEGEQDKRLHCYASWANSSGTIELVKKGCWLMDFNCYDRQECVATEENPQVYFCCCEGNFCNERFTHLPEA
Turning to B19, the binding result in the assay with activin A [1] and with GDF11 [4] was “no binding” throughout.

B20: ActRIIB(R64K 20-129)-hFc (Fc fusion)
chain: GRGEAETRECIYYNANWELERTNQSGLERCEGEQDKRLHCYASWKNSSGTIELVKKGCWLDDFNCYDRQECVATEENPQVYFCCCEGNFCNERFTHLPEAGGPEVTYEPPGGGTHTCPPCPAPELLGGPSVFLFPPKPKDTLMISRTPEVTCVVVDVSHEDPEVKFNWYVDGVEVHNAKTKPREEQYNSTYRVVSVLTVLHQDWLNGKEYKCKVSNKALPVPIEKTISKAKGQPREPQVYTLPPSREEMTKNQVSLTCLVKGFYPSDIAVEWESNGQPENNYKTTPPVLDSDGSFFLYSKLTVDKSRWQQGNVFSCSVMHEALHNHYTQKSLSLSPGK
In the assay with activin A [2], B20 showed a Kd of 0.0841 nM, a koff of 0.000628 s⁻¹ and a kon of 7.46e+06 M⁻¹ s⁻¹. In the assay with GDF8, this molecule had a Kd of 2.15 nM and a koff of 0.000209 s⁻¹.
